In test [1] the target is T1, synthesized peptide CSPQIEDPSQC (SEQ ID NO: 127), E168D.
T1 construct: Core EDPSQ, E168D mutation of c-Met
T1 peptide: CSPQIEDPSQC
Kind of test: PEPSCAN ELISA on synthesized peptides. The procedure:
(§1) The peptides were maintained at room temperature for 30 minutes by using a 5% blocking solution to provoke a reaction (4% ovalbumin, 5% horse serum, and 1% Tween 80). […] Thereafter, the resultant product was treated with rabbit-anti-sheep antibody (SIGMA) and washed with PBS, and the washed product was then treated with peroxidase-attached swine-anti-rabbit antibody (SIGMA) and washed with PBS. Then, the resultant was treated with 2 ul/ml of peroxidase 2,2′-azino-di-3-ethylbenzthiazoline sulfonate (ABTS) (SIGMA) in 3% H₂O₂, and a color reaction was measured after 1 hour.
Background: In an ELISA, binding on a coated surface is turned into a signal by an enzyme label.

Test [2] concerns the target T2, synthesized peptide CQIEDPSQAPC (SEQ ID NO: 129), E168D.
T2 construct: Core EDPSQ, E168D mutation of c-Met
T2 peptide: CQIEDPSQAPC
The experiment in a line: PEPSCAN ELISA on synthesized peptides. The procedure: as §1

Test [3] deals with T3, synthesized peptide CIEDPSQAPDC (SEQ ID NO: 130), E168D.
T3 construct: Core EDPSQ, E168D mutation of c-Met
T3 peptide: CIEDPSQAPDC
The experiment in a line: PEPSCAN ELISA on synthesized peptides. How it is done:
as §1

Test [4] concerns the target T4, peptide EEPAQ (SEQ ID NO: 136).
T4 peptide: EEPAQ
The experiment in a line: Biacore, huAbF46 immobilized on CM5 chip, peptide injected. (Surface plasmon resonance follows binding to a sensor surface in real time, without labels.)

Test [5] deals with T5, peptide EEPSQ (SEQ ID NO: 73).
T5 peptide: EEPSQ
Described as above.

The target of test [6] is T6, peptide EEASQ (SEQ ID NO: 135).
T6 peptide: EEASQ
Described as above.

In test [7] the target is T7, peptide AEPSQ (SEQ ID NO: 133).
T7 peptide: AEPSQ
The test is described as above.

For test [8], the target named is T8, peptide EAPSQ (SEQ ID NO: 134).
T8 peptide: EAPSQ
Described as above.

Test [9] has as its target T9, peptide EEPSA (SEQ ID NO: 137).
T9 peptide: EEPSA
The description is as above.

The target in test [10] is c-Met on MKN45 stomach cancer cells (human, UniProt P08581 25-1390). Kind of test: cell-based or functional assay.
c-Met on MKN45 stomach cancer cells, sequence (P08581 25-1390): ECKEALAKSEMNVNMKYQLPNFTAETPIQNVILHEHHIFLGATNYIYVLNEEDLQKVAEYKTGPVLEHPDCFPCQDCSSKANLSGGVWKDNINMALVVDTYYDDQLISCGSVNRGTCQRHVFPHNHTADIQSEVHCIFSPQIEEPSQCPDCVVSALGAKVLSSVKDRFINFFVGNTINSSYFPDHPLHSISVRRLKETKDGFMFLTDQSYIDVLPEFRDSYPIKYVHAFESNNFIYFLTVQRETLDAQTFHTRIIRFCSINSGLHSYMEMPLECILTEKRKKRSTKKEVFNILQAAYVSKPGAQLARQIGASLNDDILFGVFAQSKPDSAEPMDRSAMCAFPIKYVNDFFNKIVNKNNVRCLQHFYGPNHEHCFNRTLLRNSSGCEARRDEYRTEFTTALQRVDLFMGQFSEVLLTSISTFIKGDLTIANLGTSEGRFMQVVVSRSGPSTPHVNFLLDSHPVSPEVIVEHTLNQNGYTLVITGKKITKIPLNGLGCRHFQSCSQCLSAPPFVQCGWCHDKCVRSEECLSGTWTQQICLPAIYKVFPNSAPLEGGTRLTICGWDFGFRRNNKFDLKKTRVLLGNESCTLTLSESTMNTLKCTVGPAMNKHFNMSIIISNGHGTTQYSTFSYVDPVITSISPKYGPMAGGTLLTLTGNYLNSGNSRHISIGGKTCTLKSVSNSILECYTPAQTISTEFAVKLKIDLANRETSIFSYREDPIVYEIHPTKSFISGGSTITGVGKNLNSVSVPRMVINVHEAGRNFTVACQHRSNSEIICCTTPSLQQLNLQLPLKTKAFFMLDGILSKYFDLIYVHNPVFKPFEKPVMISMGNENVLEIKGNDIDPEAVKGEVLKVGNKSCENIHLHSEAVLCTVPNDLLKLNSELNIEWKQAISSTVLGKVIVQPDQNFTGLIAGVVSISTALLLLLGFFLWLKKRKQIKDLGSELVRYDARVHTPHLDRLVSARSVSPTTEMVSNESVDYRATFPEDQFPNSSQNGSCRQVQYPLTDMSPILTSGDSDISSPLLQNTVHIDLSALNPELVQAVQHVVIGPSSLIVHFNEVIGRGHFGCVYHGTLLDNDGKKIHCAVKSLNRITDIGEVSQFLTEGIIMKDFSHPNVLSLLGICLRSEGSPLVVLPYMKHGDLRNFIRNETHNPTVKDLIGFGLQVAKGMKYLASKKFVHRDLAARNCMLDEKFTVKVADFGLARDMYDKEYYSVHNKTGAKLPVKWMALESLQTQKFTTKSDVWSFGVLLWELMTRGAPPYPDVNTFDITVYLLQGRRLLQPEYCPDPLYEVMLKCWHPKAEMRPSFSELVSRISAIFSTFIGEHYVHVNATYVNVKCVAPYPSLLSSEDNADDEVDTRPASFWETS
In test [11] the target is T10, human c-Met/Fc fusion protein (R&D Systems) (human, UniProt P08581 25-932).
T10 construct: Bought reagent; Treated as one molecule; also called c-Met-Fc (#358-MT/CF, R&D Systems); human c-Met/Fc protein; not shown: Fc part of the bought fusion protein
T10 sequence (P08581 25-932 limits assumed): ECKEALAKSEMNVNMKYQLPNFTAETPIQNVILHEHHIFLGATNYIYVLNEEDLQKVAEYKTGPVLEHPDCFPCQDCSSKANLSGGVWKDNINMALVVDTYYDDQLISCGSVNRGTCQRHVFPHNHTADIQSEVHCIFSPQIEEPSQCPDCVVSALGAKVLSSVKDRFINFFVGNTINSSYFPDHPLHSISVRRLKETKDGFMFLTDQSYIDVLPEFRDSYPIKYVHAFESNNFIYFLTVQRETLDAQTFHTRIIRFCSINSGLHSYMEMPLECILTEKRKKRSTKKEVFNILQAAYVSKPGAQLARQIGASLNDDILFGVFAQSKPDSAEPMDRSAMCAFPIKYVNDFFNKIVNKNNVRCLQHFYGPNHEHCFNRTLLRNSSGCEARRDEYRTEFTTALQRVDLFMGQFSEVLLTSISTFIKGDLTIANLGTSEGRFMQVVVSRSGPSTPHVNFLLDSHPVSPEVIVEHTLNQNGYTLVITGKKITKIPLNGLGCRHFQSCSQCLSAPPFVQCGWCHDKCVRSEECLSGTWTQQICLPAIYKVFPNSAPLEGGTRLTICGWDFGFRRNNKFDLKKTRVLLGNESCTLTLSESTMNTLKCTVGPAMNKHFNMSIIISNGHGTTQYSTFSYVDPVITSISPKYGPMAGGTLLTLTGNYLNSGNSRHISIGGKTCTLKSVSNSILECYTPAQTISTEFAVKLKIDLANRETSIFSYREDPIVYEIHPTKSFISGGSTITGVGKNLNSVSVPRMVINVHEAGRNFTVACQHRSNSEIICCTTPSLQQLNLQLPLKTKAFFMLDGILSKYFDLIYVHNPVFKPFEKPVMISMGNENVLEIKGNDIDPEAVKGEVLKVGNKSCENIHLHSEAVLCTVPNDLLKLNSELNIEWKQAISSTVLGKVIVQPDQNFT
Kind of test: Biacore T100, antibody captured by human Fab capturer on CM5 chip, c-Met-Fc injected. The procedure: (§2) The anti-c-Met/anti-EGFR bispecific antibody was analyzed for affinity for the two antigens (c-Met/EGFR) using a Biacore T100 instrument (GE). […] The chip surface was regenerated by injecting a 10 mM Glycine-HCl solution (pH 1.5). For affinity evaluation, the data was fitted using the BIAevaluation software (GE Healthcare, Biacore T100 evaluation software).

For test [12], the target named is T11, EGFR-Fc (#344-ER, R&D Systems) (UniProt P00533 25-645).
T11 construct: Bought reagent; only name and catalogue number are printed; not shown: Fc part of the bought fusion protein
Kind of test: Biacore T100, antibody captured by human Fab capturer on CM5 chip, EGFR-Fc injected. The procedure:
as §2

The term Kd denotes the equilibrium constant for the complex coming apart. A higher Kd goes with weaker binding. As usually defined, the koff is the first-order rate constant of dissociation. A higher koff goes with fast dissociation. The kon is a measure of how fast the partners come together.

B1: humanized antibody huAbF46 (H4-heavy / H4-light) (antibody, V domains shown)
VH: EVQLVESGGGLVQPGGSLRLSCAASGFTFTDYYMSWVRQAPGKGLEWLGFIRNKANGYTTEYSASVKGRFTISRDNSKNTLYLQMNSLRAEDTAVYYCARDNWFAYWGQGTLVTVSS
VL: DIQMTQSPSSLSASVGDRVTITCKSSQSLLASGNQNNYLAWHQQKPGKAPKMLIIWASTRVSGVPSRFSGSGSGTDFTLTISSLQPEDFATYYCQQSYSAPLTFGQGTKVEIKR
notes: Purified on Protein A as a whole antibody; also called humanized antibody AbF46
On to B1, for which the binding result in [1] is listed as “no binding”; in [2], “no binding”; in test [3] it was “no binding”; in test [6], “no binding (tested: 100 nM to 0.39 nM of the peptides)”; in [7], “no binding (tested: 100 nM to 0.39 nM of the peptides)”; in test [8], “no binding (tested: 100 nM to 0.39 nM of the peptides)”. Besides, in test [9], the binding result was “no binding (tested: 100 nM to 0.39 nM of the peptides)”. For the same molecule, the Kd in test [4] stood at 1.43 nM; in test [5] it was 1.64 nM.

B2: anti-c-Met/anti-EGFR bispecific antibody ME-03 (bispecific antibody)
heavy: EVQLVESGGGLVQPGGSLRLSCAASGFTFTDYYMSWVRQAPGKGLEWLGFIRNKANGYTTEYSASVKGRFTISRDNSKNTLYLQMNSLRAEDTAVYYCARDNWFAYWGQGTLVTVSSASTKGPSVFPLAPCSRSTSESTAALGCLVKDYFPEPVTVSWNSGALTSGVHTFPAVLQSSGLYSLSSVVTVPSSNFGTQTYTCNVDHKPSNTKVDKTVERKCCVECPPCPAPPVAGPSVFLFPPKPKDTLMISRTPEVTCVVVDVSHEDPEVQFNWYVDGVEVHNAKTKPREEQFNSTFRVVSVLTVVHQDWLNGKEYKCKVSNKGLPAPIEKTISKTKGQPREPQVYTLPPSREEMTKNQVSLTCLVKGFYPSDIAVEWESNGQPENNYKTTPPMLDSDGSFFLYSKLTVDKSRWQQGNVFSCSVMHEALHNHYTQKSLSLSPGKGGGGSGGGGSQVQLVQSGAEVKKPGSSVKVSCKASGFTFTDYKIHWVRQAPGQGLEWMGYINPNSGYSTYASKFQGRVTITADKSTSTAYMELSSLRSEDTAVYYCARLSPGGYYVMDAWGQGTTVTVSSGGGGSGGGGSGGGGSDIQMTQSPSSLSASVGDRVTITCRASQGINNYLNWYQQKPGKAPKLLIYNTNNLQTGVPSRFSGSGSGTEFTLTISSLQPEDEATYYCLQHNSFPTFGQGTKLEIKRT
light: DIQMTQSPSSLSASVGDRVTITCKSSQSLLASGNQNNYLAWYQQKPGKAPKMLIIWASTRVSGVPSRFSGSGSGTDFTLTISSLQPEDFATYYCQQSYSRPYTFGQGTKVEIKRTVAAPSVFIFPPSDEQLKSGTASVVCLLNNFYPREAKVQWKVDNALQSGNSQESVTEQDSKDSTYSLSSTLTLSKADYEKHKVYACEVTHQGLSSPVTKSFNRGEC
With B2, in [10], the “c-Met degradation (relative total amount of c-Met, ELISA of lysates of MKN45 cells treated 24 hrs with 5 µg/ml antibody)” value was determined as 88.4%.

B3: anti-c-Met/anti-EGFR bispecific antibody ME-03S (bispecific antibody)
heavy: EVQLVESGGGLVQPGGSLRLSCAASGFTFTDYYMSWVRQAPGKGLEWLGFIRNKANGYTTEYSASVKGRFTISRDNSKNTLYLQMNSLRAEDTAVYYCARDNWFAYWGQGTLVTVSSASTKGPSVFPLAPCSRSTSESTAALGCLVKDYFPEPVTVSWNSGALTSGVHTFPAVLQSSGLYSLSSVVTVPSSNFGTQTYTCNVDHKPSNTKVDKTVERKCCVECPPCPAPPVAGPSVFLFPPKPKDTLMISRTPEVTCVVVDVSHEDPEVQFNWYVDGVEVHNAKTKPREEQFNSTFRVVSVLTVVHQDWLNGKEYKCKVSNKGLPAPIEKTISKTKGQPREPQVYTLPPSREEMTKNQVSLTCLVKGFYPSDIAVEWESNGQPENNYKTTPPMLDSDGSFFLYSKLTVDKSRWQQGNVFSCSVMHEALHNHYTQKSLSLSPGKGGGGSGGGGSQVQLVQSGAEVKKPGSSVKVSCKASGFTFTDYKIHWVRQAPGQCLEWMGYINPNSGYSTYASKFQGRVTITADKSTSTAYMELSSLRSEDTAVYYCARLSPGGYYVMDAWGQGTTVTVSSGGGGSGGGGSGGGGSDIQMTQSPSSLSASVGDRVTITCRASQGINNYLNWYQQKPGKAPKLLIYNTNNLQTGVPSRFSGSGSGTEFTLTISSLQPEDEATYYCLQHNSFPTFGQCTKLEIKRT
light: DIQMTQSPSSLSASVGDRVTITCKSSQSLLASGNQNNYLAWYQQKPGKAPKMLIIWASTRVSGVPSRFSGSGSGTDFTLTISSLQPEDFATYYCQQSYSRPYTFGQGTKVEIKRTVAAPSVFIFPPSDEQLKSGTASVVCLLNNFYPREAKVQWKVDNALQSGNSQESVTEQDSKDSTYSLSSTLTLSKADYEKHKVYACEVTHQGLSSPVTKSFNRGEC
notes: Secondary mutant (disulfide-stabilised) anti-EGFR scFv fused to the C-terminus of the Fc of L3-1Y-IgG2
B3: in test [11], the affinity, expressed as Kd, was 0.23 nM; the koff was found to be 0.00016 s⁻¹; the kon was 670000 M⁻¹ s⁻¹. Besides, in test [12], binding was put at a Kd of 0.12 nM, the koff is 2.7e-05 s⁻¹ and the kon turned out to be 240000 M⁻¹ s⁻¹.

B4: anti-c-Met/anti-EGFR bispecific antibody ME-01 (bispecific antibody)
heavy: EVQLVESGGGLVQPGGSLRLSCAASGFTFTDYYMSWVRQAPGKGLEWLGFIRNKANGYTTEYSASVKGRFTISRDNSKNTLYLQMNSLRAEDTAVYYCARDNWFAYWGQGTLVTVSSASTKGPSVFPLAPCSRSTSESTAALGCLVKDYFPEPVTVSWNSGALTSGVHTFPAVLQSSGLYSLSSVVTVPSSNFGTQTYTCNVDHKPSNTKVDKTVERKCCVECPPCPAPPVAGPSVFLFPPKPKDTLMISRTPEVTCVVVDVSHEDPEVQFNWYVDGVEVHNAKTKPREEQFNSTFRVVSVLTVVHQDWLNGKEYKCKVSNKGLPAPIEKTISKTKGQPREPQVYTLPPSREEMTKNQVSLTCLVKGFYPSDIAVEWESNGQPENNYKTTPPMLDSDGSFFLYSKLTVDKSRWQQGNVFSCSVMHEALHNHYTQKSLSLSPGKGGGGSGGGGSQVQLVQSGAEVKKPGSSVKVSCKASGFTFTDYKIHWVRQAPGQGLEWMGYFNPNSGYSTYAQKFQGRVTITADKSTSTAYMELSSLRSEDTAVYYCARLSPGGYYVMDAWGQGTTVTVSSGGGGSGGGGSGGGGSDIQMTQSPSSLSASVGDRVTITCRASQGINNYLNWYQQKPGKAPKRLIYNTNNLQTGVPSRFSGSGSGTEFTLTISSLQPEDFATYYCLQHNSFPTFGQGTKLEIKRT
light: DIQMTQSPSSLSASVGDRVTITCKSSQSLLASGNQNNYLAWYQQKPGKAPKMLIIWASTRVSGVPSRFSGSGSGTDFTLTISSLQPEDFATYYCQQSYSRPYTFGQGTKVEIKRTVAAPSVFIFPPSDEQLKSGTASVVCLLNNFYPREAKVQWKVDNALQSGNSQESVTEQDSKDSTYSLSSTLTLSKADYEKHKVYACEVTHQGLSSPVTKSFNRGEC
Consider B4, for which, in test [10], the “c-Met degradation (relative total amount of c-Met, ELISA of lysates of MKN45 cells treated 24 hrs with 5 µg/ml antibody)” value was 86.8%.

For the origin of these results see patent US20140356366A1 (SAMSUNG ELECTRONICS, published 2014).
